The target of the assay is T1, full-length Spike of SARS-CoV-2 on transfected 293T cells (SARS-CoV-2, UniProt P0DTC2).
T1 construct: also called Spike-expressing cells; Wuhan-hu-1 Spike
Put plainly: flow cytometry on cells. As to conditions: one partner purified.

B1: Ab159 (antibody, V domains shown)
VH: QVQLVESGGGLVKPGGSLRLSCAASGFTFNNAWMSWVRQAPGKGLEWVGRIKSKTDGGTTDYAAPVKGRFTFSRDDSKNTLYLQMSSLKTEDTALYYCTTADYDILTGTPASPYWGQGTLVTVSS
VL: DIQMTQSPSSLSASVGDRVTITCRASQSITNYLNWYQQKPGKAPKFLIYAASSLQGGVPSRFRGSGSGTDFTLTISSLQPEDFATYYCQQTYSTLWTFGQGTKVEIK
notes: copies: 2 + 2
Consider B1, for which the binding result is listed as “binds”.
